Reference: FireProtDB (doi:10.1021/bi015547k)

Details: Pseudomonas putida; pH 7; 25 °C; Urea; CD; potassium phosphate 20 mM; reversible: yes; whole UniProt chain shown

B1: Steroid Delta-isomerase wild type, P07445 (protein)
chain: MNLPTAQEVQGLMARYIELVDVGDIEAIVQMYADDATVEDPFGQPPIHGREQIAAFYRQGLGGGKVRACLTGPVRASHNGCGAMPFRVEMVWNGQPCALDVIDVMRFDEHGRIQTMQAYWSEVNLSVREPQ
Q: For B1, which denaturant m value is on record?
A: 3.39 kcal/mol/M

Q: And the “denaturant midpoint (higher = more stable)” value?
A: 5.22 M

Q: And the unfolding free energy?
A: 24.3 kcal/mol
